Laboratory results taken from publication PMC3448007.

Target: NKX2.5 homeodomain (C56S) (Homo sapiens, UniProt P52952 137-197, C193S)
Assay: crystal structure

Chain of NKX2.5 homeodomain (C56S) (P52952 137-197 C193S): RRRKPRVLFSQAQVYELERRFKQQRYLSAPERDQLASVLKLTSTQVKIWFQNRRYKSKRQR

B1: ANF-242 19-bp (dsDNA)
DNA 1: TGAAGTGGGGGCCACTTGA
DNA 2: TCAAGTGGCCCCCACTTCA
B1: binds.
